Experimental data published in article PMC8972799.

Molecular target: T1, D-alanyl carrier protein ligase DltA from Staphylococcus aureus Mu50 (S. aureus) (UniProt P68876)
T1 sequence: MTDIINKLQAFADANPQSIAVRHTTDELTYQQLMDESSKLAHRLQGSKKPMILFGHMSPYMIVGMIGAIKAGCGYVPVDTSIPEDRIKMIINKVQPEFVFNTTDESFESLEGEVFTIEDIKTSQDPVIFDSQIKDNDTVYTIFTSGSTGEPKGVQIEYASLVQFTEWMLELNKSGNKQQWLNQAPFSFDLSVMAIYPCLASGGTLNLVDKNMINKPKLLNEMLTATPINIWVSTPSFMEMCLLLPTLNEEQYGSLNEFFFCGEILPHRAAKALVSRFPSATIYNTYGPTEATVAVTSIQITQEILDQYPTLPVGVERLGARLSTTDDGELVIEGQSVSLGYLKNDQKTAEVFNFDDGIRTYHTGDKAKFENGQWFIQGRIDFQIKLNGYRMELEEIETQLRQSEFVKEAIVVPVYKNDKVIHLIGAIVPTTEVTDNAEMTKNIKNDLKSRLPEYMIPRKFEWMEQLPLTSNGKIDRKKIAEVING

B1: wild-type S. aureus DltC, Ppant-modified (natural protein)
chain: MEFREQVLNLLAEVAENDIVKENPDVEIFEEGIIDSFQTVGLLLEIQNKLDIEVSIMDFDRDEWATPNKIVEALEELR
modifications: 4'-phosphopantetheinyl (Ppant) group at Ser36
  adenylation activity of SaDltA (5 µM; initial rate, pyrophosphate-detection assay, 5 mM D-alanine) in the presence of 300 µM wild-type SaDltC, against SaDltA alone: 7.2 fold
